6 molecules from publication PMC4823042, “Transcription factor LSF (TFCP2) inhibits melanoma growth” can be followed below.

The series concerns the target T1, LSF (Late SV40 factor 3) (human, UniProt Q12800 1-502).
T1 sequence: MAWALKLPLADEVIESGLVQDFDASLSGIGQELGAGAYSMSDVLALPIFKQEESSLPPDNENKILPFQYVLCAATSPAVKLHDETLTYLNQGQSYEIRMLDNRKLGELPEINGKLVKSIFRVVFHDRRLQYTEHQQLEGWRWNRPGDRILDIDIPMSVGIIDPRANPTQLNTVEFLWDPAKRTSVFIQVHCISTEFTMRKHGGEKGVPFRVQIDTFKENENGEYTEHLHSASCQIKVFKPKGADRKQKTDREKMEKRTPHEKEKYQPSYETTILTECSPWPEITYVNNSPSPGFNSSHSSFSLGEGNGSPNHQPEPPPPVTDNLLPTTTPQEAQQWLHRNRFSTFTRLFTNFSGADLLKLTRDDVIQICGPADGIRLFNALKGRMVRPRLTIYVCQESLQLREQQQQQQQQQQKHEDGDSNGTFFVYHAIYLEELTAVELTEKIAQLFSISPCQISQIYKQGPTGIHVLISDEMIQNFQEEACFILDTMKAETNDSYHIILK
The series is described as follows: EMSA; LightShift Chemiluminescent EMSA kit per manufacturer; 7% PAGE in 0.5x TBE; binding buffer, pH and temperature not stated. The settings on record: protein: ivt, tags: FLAG, chain copies: 4, label: biotin end label. (A gel shift assay detects complexes by their altered migration in electrophoresis.)

Setting [1] is: 5' overhangs 4 nt on both strands.

B1: p21 promoter #1 (dsDNA)
DNA 1: GCACGCGAGGTTCCGGGACCGGCTGGCCTGC
DNA 2: TCCAGCAGGCCAGCCGGTCCCGGAACCTCGC
On to B1, for which the binding result under setting [1] is given as “binds”.

B2: p21 promoter #3 (dsDNA)
DNA 1: GCTGGCTCGGCGCTGGGCAGCCAGGAGCCT
DNA 2: GCCCAGGCTCCTGGCTGCCCAGCGCCGAGCC
Consider B2, for which the binding result (5' overhangs 3 nt (top) and 4 nt (bottom)) is recorded as “binds”.

B3: p21 promoter #1 mutant (dsDNA)
DNA 1: GCACGCGAGGTTACGTGACCGTATGTCCTGC
DNA 2: TCCAGCAGGACATACGGTCACGTAACCTCGC
On to B3, for which, under setting [1], the binding result is “no binding”.

B4: p21 promoter #4 mutant (dsDNA)
DNA 1: GCCTCCTTGAGTAGGTCCCGGTAGGTGCGGT
DNA 2: TACAACCGCACCTACCGGGACCTACTCAAGG
In the case of B4, under setting [1], the binding result is reported as “no binding”.

B5: p21 promoter #2 (dsDNA)
DNA 1: GCTGGAACTCGGCCAGGCTCAGCTGGCTCGG
DNA 2: AGCGCCGAGCCAGCTGAGCCTGGCCGAGTTC
On to B5, for which the binding result under setting [1] is reported as “binds”.

B6: p21 promoter #4 (dsDNA)
DNA 1: GCCTCCTTGAGGCGGGCCCGGGCGGGGCGGT
DNA 2: TACAACCGCCCCGCCCGGGCCCGCCTCAAGG
Consider B6, for which, under setting [1], the binding result was “binds”.
